Test results published in the Human Domainome abundance scans (Beltran et al. 2025).
± gives the uncertainty stated by the source.

B1: POU domain, class 3, transcription factor 3, residues 408 to 463; numbered along this chain, P20264 (parent)
chain: KKRTSIEVSVKGALESHFLKCPKPSAQEITNLADSLQLEKEVVRVWFCNRRQKEKR

Variants of: B1
Assay: abundance fitness (aPCA) (normalised: wild type 0, dead -1); higher = more abundant; growth selection in yeast, the domain comes from the species named
Conditions: Homo sapiens
Variant KKRTSIEVSVKGALESHFLKCPKPSAQEHTNLADSLQLEKEVVRVWFCNRRQKEKR has an abundance fitness of -0.997 ± 0.41.
Variant KKRTSIEVSVKGALESHFLKCPKPSAQETTNLADSLQLEKEVVRVWFCNRRQKEKR has an abundance fitness of -0.849 ± 0.19.
KKRTSIEVSVKGALESHFLKCPKPSAQECTNLADSLQLEKEVVRVWFCNRRQKEKR gave an abundance fitness of -0.574 ± 0.14.
In the case of KKRTSIEVSVKGALESHFLKCPKPSAQEKTNLADSLQLEKEVVRVWFCNRRQKEKR, the abundance fitness is reported as -1.07 ± 0.17.
For KKRTSIEVSVKGALESHFLKCPKPSAQEWTNLADSLQLEKEVVRVWFCNRRQKEKR, the abundance fitness was -0.903 ± 0.14.
With KKRTSIEVSVKGALESHFLKCPKPSAQELTNLADSLQLEKEVVRVWFCNRRQKEKR the abundance fitness was -0.038 ± 0.08.
In the case of KKRTSIEVSVKGALESHFLKCPKPSAQEVTNLADSLQLEKEVVRVWFCNRRQKEKR, the abundance fitness is reported as -0.204 ± 0.08.
KKRTSIEVSVKGALESHFLKCPKPSAQEGTNLADSLQLEKEVVRVWFCNRRQKEKR gave an abundance fitness of -0.899 ± 0.099.
For KKRTSIEVSVKGALESHFLKCPKPSAQESTNLADSLQLEKEVVRVWFCNRRQKEKR, the abundance fitness was -0.781 ± 0.15.
With KKRTSIEVSVKGALESHFLKCPKPSAQENTNLADSLQLEKEVVRVWFCNRRQKEKR the abundance fitness was -0.982 ± 0.26.
In the case of KKRTSIEVSVKGALESHFLKCPKPSAQEDTNLADSLQLEKEVVRVWFCNRRQKEKR, the abundance fitness is reported as -0.871 ± 0.24.
In the case of KKRTSIEVSVKGALESHFLKCPKPSAQEFTNLADSLQLEKEVVRVWFCNRRQKEKR, the abundance fitness is reported as -0.832 ± 0.2.
For KKRTSIEVSVKGALESHFLKCPKPSAQEPTNLADSLQLEKEVVRVWFCNRRQKEKR, the abundance fitness was -0.871 ± 0.21.
Variant KKRTSIEVSVKGALESHFLKCPKPSAQEQTNLADSLQLEKEVVRVWFCNRRQKEKR has an abundance fitness of -0.822 ± 0.15.
In the case of KKRTSIEVSVKGALESHFLKCPKPSAQERTNLADSLQLEKEVVRVWFCNRRQKEKR, the abundance fitness is reported as -0.859 ± 0.097.
Work on KKRTSIEVSVKGALESHFLKCPKPSAQEMTNLADSLQLEKEVVRVWFCNRRQKEKR yielded an abundance fitness of -0.028 ± 0.11.
KKRTSIEVSVKGALESHFLKCPKPSAQEETNLADSLQLEKEVVRVWFCNRRQKEKR gave an abundance fitness of -0.301 ± 0.11.
Work on KKRTSIEVSVKGALESHFLKCPKPSAQEYTNLADSLQLEKEVVRVWFCNRRQKEKR yielded an abundance fitness of -0.889 ± 0.23.
In the case of KKRTSIEVSVKGALESHFLKCPKPSAQWITNLADSLQLEKEVVRVWFCNRRQKEKR, the abundance fitness is reported as -0.59 ± 0.1.
For KKRTSIEVSVKGALESHFLKCPKPSAQYITNLADSLQLEKEVVRVWFCNRRQKEKR, the abundance fitness was -0.048 ± 0.18.
Work on KKRTSIEVSVKGALESHFLKCPKPSAQFITNLADSLQLEKEVVRVWFCNRRQKEKR yielded an abundance fitness of -0.573 ± 0.15.
KKRTSIEVSVKGALESHFLKCPKPSAQGITNLADSLQLEKEVVRVWFCNRRQKEKR gave an abundance fitness of -0.237 ± 0.067.
Work on KKRTSIEVSVKGALESHFLKCPKPSAQAITNLADSLQLEKEVVRVWFCNRRQKEKR yielded an abundance fitness of -0.118 ± 0.083.
KKRTSIEVSVKGALESHFLKCPKPSAQIITNLADSLQLEKEVVRVWFCNRRQKEKR gave an abundance fitness of -0.223 ± 0.26.
With KKRTSIEVSVKGALESHFLKCPKPSAQSITNLADSLQLEKEVVRVWFCNRRQKEKR the abundance fitness was -0.45 ± 0.09.
For KKRTSIEVSVKGALESHFLKCPKPSAQPITNLADSLQLEKEVVRVWFCNRRQKEKR, the abundance fitness was -0.838 ± 0.13.
Work on KKRTSIEVSVKGALESHFLKCPKPSAQHITNLADSLQLEKEVVRVWFCNRRQKEKR yielded an abundance fitness of -0.554 ± 0.25.
In the case of KKRTSIEVSVKGALESHFLKCPKPSAQQITNLADSLQLEKEVVRVWFCNRRQKEKR, the abundance fitness is reported as -0.145 ± 0.15.
KKRTSIEVSVKGALESHFLKCPKPSAQTITNLADSLQLEKEVVRVWFCNRRQKEKR gave an abundance fitness of -0.251 ± 0.13.
KKRTSIEVSVKGALESHFLKCPKPSAQKITNLADSLQLEKEVVRVWFCNRRQKEKR showed an abundance fitness of -0.538 ± 0.13.
Work on KKRTSIEVSVKGALESHFLKCPKPSAQNITNLADSLQLEKEVVRVWFCNRRQKEKR yielded an abundance fitness of -0.455 ± 0.19.
KKRTSIEVSVKGALESHFLKCPKPSAQCITNLADSLQLEKEVVRVWFCNRRQKEKR gave an abundance fitness of -0.368 ± 0.12.
For KKRTSIEVSVKGALESHFLKCPKPSAQRITNLADSLQLEKEVVRVWFCNRRQKEKR, the abundance fitness was -0.456 ± 0.069.
Work on KKRTSIEVSVKGALESHFLKCPKPSAQVITNLADSLQLEKEVVRVWFCNRRQKEKR yielded an abundance fitness of -0.442 ± 0.084.
Variant KKRTSIEVSVKGALESHFLKCPKPSAQDITNLADSLQLEKEVVRVWFCNRRQKEKR has an abundance fitness of -0.256 ± 0.15.
KKRTSIEVSVKGALESHFLKCPKPSAYEITNLADSLQLEKEVVRVWFCNRRQKEKR gave an abundance fitness of -0.195 ± 0.15.
KKRTSIEVSVKGALESHFLKCPKPSAGEITNLADSLQLEKEVVRVWFCNRRQKEKR showed an abundance fitness of -0.076 ± 0.067.
KKRTSIEVSVKGALESHFLKCPKPSAFEITNLADSLQLEKEVVRVWFCNRRQKEKR showed an abundance fitness of -0.27 ± 0.13.
For KKRTSIEVSVKGALESHFLKCPKPSAWEITNLADSLQLEKEVVRVWFCNRRQKEKR, the abundance fitness was -0.222 ± 0.076.
With KKRTSIEVSVKGALESHFLKCPKPSAEEITNLADSLQLEKEVVRVWFCNRRQKEKR the abundance fitness was -0.036 ± 0.11.
Variant KKRTSIEVSVKGALESHFLKCPKPSAIEITNLADSLQLEKEVVRVWFCNRRQKEKR has an abundance fitness of -0.312 ± 0.16.
KKRTSIEVSVKGALESHFLKCPKPSAAEITNLADSLQLEKEVVRVWFCNRRQKEKR showed an abundance fitness of -0.049 ± 0.081.
KKRTSIEVSVKGALESHFLKCPKPSAKEITNLADSLQLEKEVVRVWFCNRRQKEKR gave an abundance fitness of -0.095 ± 0.11.
With KKRTSIEVSVKGALESHFLKCPKPSATEITNLADSLQLEKEVVRVWFCNRRQKEKR the abundance fitness was -0.151 ± 0.11.
KKRTSIEVSVKGALESHFLKCPKPSAPEITNLADSLQLEKEVVRVWFCNRRQKEKR gave an abundance fitness of -0.279 ± 0.084.
For KKRTSIEVSVKGALESHFLKCPKPSALEITNLADSLQLEKEVVRVWFCNRRQKEKR, the abundance fitness was -0.091 ± 0.068.
For KKRTSIEVSVKGALESHFLKCPKPSAVEITNLADSLQLEKEVVRVWFCNRRQKEKR, the abundance fitness was -0.11 ± 0.07.
